{"source": "paper PMC5752668", "about": "(Nature Communications, 2018)", "molecules": {"B1": {"name": "Rab32FL:GDP (full-length Rab32, residues 1-225, GDP-bound) (natural protein)", "chain": "MAGGGAGDPGLGAAAAPAPETREHLFKVLVIGELGVGKTSIIKRYVHQLFSQHYRATIGVDFALKVLNWDSRTLVRLQLWDIAGQERFGNMTRVYYKEAVGAFVVFDISRSSTFEAVLKWKSDLDSKVHLPNGSPIPAVLLANKCDQNKDSSQSPSQVDQFCKEHGFAGWFETSAKDNINIEEAARFLVEKILVNHQSFPNEENDVDKIKLDQETLRAENKSQCC", "notes": "also called Rab32:GDP; Rab32_(1-225); source: E. coli BL21(DE3)-RIL, purified (Ni-IMAC, TEV cleavage, second IMAC, SEC)"}, "B2": {"name": "GtgE_(FL,C45A) (full-length catalytically inactive GtgE, residues 1-228) (enzyme)", "chain": "MLRHIQNSLGSVYRSNTATPQGQIIHHRNFQSQFDTTGNTLYNNAWVCSLNVIKSRDGNNYSALEDITSDNQAFNNILEGIDIIECENLLKEMNVQKIPESSLFTNIKEALQAEVFNSTVEDDFESFISYELQNHGPLMLIRPSLGSECLHAECIVGYDSEVKKVLIYDSMNTSPEWQSNIDVYDKLTLAFNDKYKNEDCSICGLYYDGVYEPKPLHSSSWKDWCTIL", "notes": "source: E. coli BL21(DE3)-RIL, purified (Ni-IMAC, TEV cleavage, second IMAC)"}}, "key": {"[1]": {"target": "T1, Rab32FL (Homo sapiens, UniProt Q13637)", "T1 construct": "gene RAB32; full length, E. coli, N-terminal His6-MBP tag cut by TEV, monomer by SEC", "T1 sequence (Q13637 1-225)": "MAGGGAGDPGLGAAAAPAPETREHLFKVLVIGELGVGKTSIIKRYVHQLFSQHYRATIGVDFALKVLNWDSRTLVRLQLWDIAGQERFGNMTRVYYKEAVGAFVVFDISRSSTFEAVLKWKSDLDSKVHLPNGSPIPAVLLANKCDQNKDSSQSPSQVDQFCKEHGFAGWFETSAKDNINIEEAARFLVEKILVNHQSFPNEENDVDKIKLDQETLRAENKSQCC", "assay": "intrinsic GTP hydrolysis, ion-pairing RP-HPLC of nucleotide content", "type": "biochemical", "details": "intrinsic GTPase, no GAP; single-exponential fit"}, "[2]": {"target": "T2, Rab32_1-225:GDP:GtgE1-228,C45A complex (Homo sapiens, UniProt Q13637)", "T2 construct": "gene RAB32; full-length Rab32 and full-length GtgE C45A, E. coli, His6-MBP tag cut by TEV, reductively lysine-methylated complex, 1:1 heterodimer; with Cysteine protease GtgE (Salmonella enterica serovar Typhimurium SL1344)", "T2 sequence (Q6EAT3 entry or part of it C45A, one chain of several)": "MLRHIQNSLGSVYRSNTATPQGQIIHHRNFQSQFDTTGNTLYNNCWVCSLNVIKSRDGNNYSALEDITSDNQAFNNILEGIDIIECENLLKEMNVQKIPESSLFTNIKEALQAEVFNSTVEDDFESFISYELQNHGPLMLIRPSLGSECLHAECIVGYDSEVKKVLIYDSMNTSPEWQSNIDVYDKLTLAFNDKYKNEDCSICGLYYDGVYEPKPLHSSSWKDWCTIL", "assay": "X-ray crystallography, […] Å", "type": "binding", "details": "nucleotide site of Rab32; crystals from 0.05 M imidazole pH 8, 20% PEG 6000"}, "[3]": {"target": "B2", "assay": "ITC", "details": "both partners purified"}, "[4]": {"target": "B1", "assay": "ITC", "details": "both partners purified"}, "[5]": {"target": "B2", "assay": "AUC", "details": "both partners purified"}, "[6]": {"target": "T3, GtgE_(21-214,C45A) (truncated inactive GtgE, lysine-methylated, for crystallization) (Salmonella enterica serovar Typhimurium …, UniProt Q6EAT3 21-214, C45A, surface exposed lysine residues reductively methylated)", "T3 construct": "source: E. coli BL21(DE3)-RIL, purified; complex reductively methylated", "T3 sequence": "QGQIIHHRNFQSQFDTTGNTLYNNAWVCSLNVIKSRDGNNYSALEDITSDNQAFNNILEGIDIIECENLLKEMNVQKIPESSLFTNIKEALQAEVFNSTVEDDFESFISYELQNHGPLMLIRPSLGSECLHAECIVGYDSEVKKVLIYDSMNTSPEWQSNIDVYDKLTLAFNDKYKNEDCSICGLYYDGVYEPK", "assay": "crystal structure", "details": "both partners purified"}}}
{"molecule": "Nc1nc2c(ncn2[C@@H]2O[C@H](COP(=O)(O)OP(=O)(O)OP(=O)(O)O)[C@@H](O)[C@H]2O)c(=O)[nH]1", "note": "[GTP]", "values": [{"measurement": "k hydr", "setting": "[1]", "value": "Rab32 has an exceptionally slow intrinsic GTPase-activity with an hydrolysis constant determined"}]}
{"molecule": "Nc1nc2c(ncn2[C@@H]2O[C@H](COP(=O)(O)OP(=O)(O)O)[C@@H](O)[C@H]2O)c(=O)[nH]1", "note": "[GDP]", "values": [{"measurement": "X-ray crystallography, 2.9 Å", "setting": "[2]", "value": "The full-length Rab32:GDP:GtgEC45A structure was solved by molecular replacement"}]}
{"molecule": "B1", "values": [{"measurement": "Kd", "setting": "[3]", "value": 96, "unit": "nM"}]}
{"molecule": "B2", "values": [{"measurement": "stoichiometry N", "setting": "[4]", "value": 1}]}
{"molecule": "Rab32FL-Atto488 (Rab32:GDP labelled at thiol groups with Atto488-Maleimide) (natural protein, thiol groups covalently labeled with Atto488-Maleimide, also called Rab32:GDP_(fluor.); fluorescently labeled Rab32FL:GDP; source: E. coli BL21(DE3)-RIL, purified, then labelled with Atto488-Maleimide) MAGGGAGDPGLGAAAAPAPETREHLFKVLVIGELGVGKTSIIKRYVHQLFSQHYRATIGVDFALKVLNWDSRTLVRLQLWDIAGQERFGNMTRVYYKEAVGAFVVFDISRSSTFEAVLKWKSDLDSKVHLPNGSPIPAVLLANKCDQNKDSSQSPSQVDQFCKEHGFAGWFETSAKDNINIEEAARFLVEKILVNHQSFPNEENDVDKIKLDQETLRAENKSQCC", "values": [{"measurement": "Kd", "setting": "[5]", "value": 118, "unit": "nM"}]}
{"molecule": "Rab32_(18-201):GDP (truncated Rab32, lysine-methylated, for crystallization) (domain or fragment, source: E. coli BL21(DE3)-RIL, purified; complex reductively methylated) APETREHLFKVLVIGELGVGKTSIIKRYVHQLFSQHYRATIGVDFALKVLNWDSRTLVRLQLWDIAGQERFGNMTRVYYKEAVGAFVVFDISRSSTFEAVLKWKSDLDSKVHLPNGSPIPAVLLANKCDQNKDSSQSPSQVDQFCKEHGFAGWFETSAKDNINIEEAARFLVEKILVNHQSFPN", "values": [{"measurement": "binding result", "setting": "[6]", "value": "binds"}]}
